Columns and labels:
[1] = target: h4-1BB-His antigen (Acro company, product number: Q07011-1) (human) (UniProt Q07011); assay: BLI (Fortebio), h4-1BB-His
[2] = target: human 4-1BB full length, on the cell surface (human) (UniProt Q07011); assay: FACS, transiently transfected Expi293 cells (WT)
[3] = target: Human 4-1BB + Mouse 4-1BB domain1,2A,2B(aa24-86) (human; mouse); assay: FACS, transiently transfected Expi293 cells (cell A)
[4] = target: Human 4-1BB + Mouse 4-1BB domain2B,3A,3B(aa64-118) (human; mouse) (UniProt Q07011); assay: FACS, transiently transfected Expi293 cells (cell B)
[5] = target: Human 4-1BB + Mouse 4-1BB domain3A,3B,4A(aa87-133) (human; mouse) (UniProt Q07011); assay: FACS, transiently transfected Expi293 cells (cell C)
[6] = target: Human 4-1BB + Mouse 4-1BB domain3B,4A,4B(aa97-159) (human; mouse) (UniProt Q07011); assay: FACS, transiently transfected Expi293 cells (cell D)
[7] = target: Human 4-1BB + Mouse 4-1BB domain4A,4B,NF(aa119-186) (human; mouse); assay: FACS, transiently transfected Expi293 cells (cell E)
[8] = target: Human 4-1BB + Mouse 4-1BB domain1,4B,NF(aa24-46,aa139-186) (human; mouse); assay: FACS, transiently transfected Expi293 cells (cell F)
[9] = target: human 4-1BB full length, on the cell surface (human) (UniProt Q07011); assay: FACS competition, CHO-K1-hu4-1BB; labelled Bio-4-1BBL 2 µg/ml fixed, competitor varied
[10] = target: human 4-1BB full length, on the cell surface (human) (UniProt Q07011); assay: FACS competition, CHO-K1-hu4-1BB; labelled Bio-Hanke10F4 1.5 µg/ml fixed, competitor varied

Chain of human 4-1BB full length, on the cell surface (human) (Q07011 24-255 limits assumed): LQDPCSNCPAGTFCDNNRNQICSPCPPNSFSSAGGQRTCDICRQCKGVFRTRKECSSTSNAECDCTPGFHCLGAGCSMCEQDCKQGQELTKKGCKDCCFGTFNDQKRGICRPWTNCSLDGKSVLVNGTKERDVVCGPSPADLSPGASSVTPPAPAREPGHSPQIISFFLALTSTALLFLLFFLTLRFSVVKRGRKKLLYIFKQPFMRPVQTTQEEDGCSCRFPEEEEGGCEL
Chain of Urelumab (antibody) (VH): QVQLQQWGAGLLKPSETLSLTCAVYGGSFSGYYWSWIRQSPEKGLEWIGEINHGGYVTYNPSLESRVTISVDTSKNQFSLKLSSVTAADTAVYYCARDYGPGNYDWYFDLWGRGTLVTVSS
Chain of Urelumab (antibody) (VL): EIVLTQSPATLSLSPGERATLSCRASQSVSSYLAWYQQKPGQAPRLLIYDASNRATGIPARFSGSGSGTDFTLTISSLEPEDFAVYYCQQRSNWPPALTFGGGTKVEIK
Chain of human 4-1BBL-hIgG (Fc fusion) (chain, part): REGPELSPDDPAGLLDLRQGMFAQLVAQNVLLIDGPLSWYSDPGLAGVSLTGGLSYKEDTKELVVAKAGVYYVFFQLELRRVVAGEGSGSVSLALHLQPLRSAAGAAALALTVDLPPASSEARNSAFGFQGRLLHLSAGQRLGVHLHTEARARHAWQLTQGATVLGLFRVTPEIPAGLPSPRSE
Chain of Human 4-1BB + Mouse 4-1BB domain1,2A,2B(aa24-86) (human; mouse) (chain, as listed by the source): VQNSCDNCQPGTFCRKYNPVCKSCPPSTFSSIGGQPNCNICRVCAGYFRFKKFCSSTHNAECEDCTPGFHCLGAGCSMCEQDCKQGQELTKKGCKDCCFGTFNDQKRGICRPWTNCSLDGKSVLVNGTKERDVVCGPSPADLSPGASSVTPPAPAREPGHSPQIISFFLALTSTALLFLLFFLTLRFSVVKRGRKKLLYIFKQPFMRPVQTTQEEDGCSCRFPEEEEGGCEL
Chain of Human 4-1BB + Mouse 4-1BB domain2B,3A,3B(aa64-118) (human; mouse) (Q07011 other isoform, or with tags, fused parts or gaps): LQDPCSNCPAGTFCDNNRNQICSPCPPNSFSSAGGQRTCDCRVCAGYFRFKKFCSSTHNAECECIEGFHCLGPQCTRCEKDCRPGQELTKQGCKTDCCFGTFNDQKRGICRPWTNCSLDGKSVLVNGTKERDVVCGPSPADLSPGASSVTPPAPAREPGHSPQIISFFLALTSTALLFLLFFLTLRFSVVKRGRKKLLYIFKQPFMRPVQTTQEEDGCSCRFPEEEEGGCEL
Chain of h4-1BB-His antigen (Acro company, product number: Q07011-1) (human) (Q07011 24-186): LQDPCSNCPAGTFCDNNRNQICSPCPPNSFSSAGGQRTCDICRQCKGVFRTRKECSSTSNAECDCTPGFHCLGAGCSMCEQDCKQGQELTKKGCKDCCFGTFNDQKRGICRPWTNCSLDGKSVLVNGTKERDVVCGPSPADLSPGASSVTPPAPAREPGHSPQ
Chain of Human 4-1BB + Mouse 4-1BB domain4A,4B,NF(aa119-186) (human; mouse) (chain, as listed by the source): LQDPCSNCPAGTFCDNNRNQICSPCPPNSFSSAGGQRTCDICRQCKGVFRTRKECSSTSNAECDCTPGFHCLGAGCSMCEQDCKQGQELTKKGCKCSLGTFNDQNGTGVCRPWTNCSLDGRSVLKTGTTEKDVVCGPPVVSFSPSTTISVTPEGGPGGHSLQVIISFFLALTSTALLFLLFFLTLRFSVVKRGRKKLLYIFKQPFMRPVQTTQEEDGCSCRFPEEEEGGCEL
Chain of Human 4-1BB + Mouse 4-1BB domain1,4B,NF(aa24-46,aa139-186) (human; mouse) (chain, as listed by the source): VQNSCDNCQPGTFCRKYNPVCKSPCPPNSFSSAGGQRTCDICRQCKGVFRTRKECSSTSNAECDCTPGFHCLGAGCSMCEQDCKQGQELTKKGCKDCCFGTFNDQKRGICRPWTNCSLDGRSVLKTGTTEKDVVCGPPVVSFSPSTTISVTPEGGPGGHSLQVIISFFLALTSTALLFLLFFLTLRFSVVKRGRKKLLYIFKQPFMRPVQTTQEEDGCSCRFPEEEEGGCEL
Chain of Human 4-1BB + Mouse 4-1BB domain3B,4A,4B(aa97-159) (human; mouse) (Q07011 other isoform, or with tags, fused parts or gaps): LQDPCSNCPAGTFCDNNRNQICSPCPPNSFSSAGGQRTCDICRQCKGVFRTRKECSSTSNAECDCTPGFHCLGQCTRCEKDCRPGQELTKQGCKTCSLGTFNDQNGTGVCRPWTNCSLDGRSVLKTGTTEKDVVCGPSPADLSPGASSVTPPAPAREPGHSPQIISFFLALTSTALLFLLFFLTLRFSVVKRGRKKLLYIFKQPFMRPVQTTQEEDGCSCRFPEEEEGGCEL
Chain of Human 4-1BB + Mouse 4-1BB domain3A,3B,4A(aa87-133) (human; mouse) (Q07011 other isoform, or with tags, fused parts or gaps): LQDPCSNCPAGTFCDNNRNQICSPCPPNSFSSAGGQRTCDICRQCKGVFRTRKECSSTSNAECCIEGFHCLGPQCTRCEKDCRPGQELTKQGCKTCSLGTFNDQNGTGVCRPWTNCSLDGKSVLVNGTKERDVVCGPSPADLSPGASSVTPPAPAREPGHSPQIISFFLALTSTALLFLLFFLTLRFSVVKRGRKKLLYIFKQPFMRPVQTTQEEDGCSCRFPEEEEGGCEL

Kd [1] [nM]	Mean fluorescence intensity [2]	Mean fluorescence intensity [3]	Mean fluorescence intensity [4]	Mean fluorescence intensity [5]	Mean fluorescence intensity [6]	Mean fluorescence intensity [7]	Mean fluorescence intensity [8]	FACS signal of Bio-4-1BBL at (B:A) Ratio 0.03906 [9]	FACS signal of Bio-4-1BBL at (B:A) Ratio 0.15625 [9]	FACS signal of Bio-4-1BBL at (B:A) Ratio 0.625 [9]	FACS signal of Bio-4-1BBL at (B:A) Ratio 2.5 [9]	FACS signal of Bio-4-1BBL at (B:A) Ratio 10 [9]	FACS signal of Bio-4-1BBL at (B:A) Ratio 40 [9]	FACS signal of Bio-Hanke10F4 at (B:A) Ratio 0.058593 [10]	FACS signal of Bio-Hanke10F4 at (B:A) Ratio 0.23437 [10]	FACS signal of Bio-Hanke10F4 at (B:A) Ratio 0.9375 [10]	FACS signal of Bio-Hanke10F4 at (B:A) Ratio 3.75 [10]	FACS signal of Bio-Hanke10F4 at (B:A) Ratio 15 [10]	FACS signal of Bio-Hanke10F4 at (B:A) Ratio 60 [10]	Substance
5.76	146000	1820	313000	193000	123000	194000	4910													Urelumab (antibody)
		19000																		Utomilumab (antibody)
								7740	7910	6850	6320	3770	3220	6310	6580	4860	2290	584	254	human 4-1BBL-hIgG (Fc fusion)

Source: US20220411523A1
